Results from US20260070984A1 (Boehringer Ingelheim, published 2026).

target: T1, recombinant human PD-1 (human, UniProt Q15116 25-167, limits assumed); assay: SPR, ProteOn XPR36
T1 construct: Soluble recombinant protein used in SPR; also called PDCD1; purified recombinant human PD-1
Procedure: Kinetics and binding affinities were measured using the ProteOn™ XPR36 (Biorad, Hercules, CA) surface plasmon resonance optical biosensor using material generated from transient transfection following single column purification.

T1 sequence (Q15116 25-167 limits assumed): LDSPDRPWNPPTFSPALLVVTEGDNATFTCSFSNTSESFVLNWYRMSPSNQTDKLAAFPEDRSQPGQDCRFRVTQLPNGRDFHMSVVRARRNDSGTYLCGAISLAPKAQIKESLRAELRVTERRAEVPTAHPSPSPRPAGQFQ

Kd [nM] | koff [s⁻¹] | kon [M⁻¹ s⁻¹] | Binder
8.08 | 0.000348 | 43100 | Chimeric 708E4 (antibody, V domains shown, Mouse variable domains in human IgG4Pro (Ser228Pro) backbone; also called 708E4 in human IgG4Pro backbone) VH: QIQLQQSGPELVKPGASVKISCKASGYTFTDYYLNWVKQRPGHGLEWIGWIYPGSSDTKHNENFKGKATLTVDTYSSTAYMQLGSLTSEDSAVYFCTRYSNFFFDYWGQGTTLTVSS VL: DIVMTQSQKFLSTSVGDRVRVTCKASQNVVTYVAWYQQKPGQSPKSLIYSASYRYSGVPDRFTGSGSGTYFTLTINNVQFEDLAEYFCQQYHSYPYTFGGGTKLEIK
1.85 | 0.000149 | 80700 | Chimeric 814E10 (antibody, V domains shown, Mouse variable domains in human IgG4Pro (Ser228Pro) backbone; also called 814E10 in human IgG4Pro backbone) VH: QIQLQQSGPELVKPGASVKISCKASGYTFTSYYIQWVKQRPGQGLEWIGWIYPGDGTTNYNENFKGKTTLTADKSSSTVYMLLSSLTSEDSAVYFCARYGLVPFDYWGQGTTLTVSS VL: DIQMTQTTSSLSASLGDRVTISCSASQDIINYLNWYQQKPDGTVKLLIYSTSSLHSGVSLRFSGSGSGTDYSLTISNLEPEDVATYYCHQYSQLPYTFGGGTKLEIK
5.02 | 0.00053 | 106000 | Chimeric 803E6 (antibody, V domains shown, Mouse variable domains in human IgG4Pro (Ser228Pro) backbone; also called 803E6 in human IgG4Pro backbone) VH: EVKLVESEGGLVQPGSSMKLSCTASGFTFSDYYMAWVRQVPEKGLEWVANINYDGFNTYYLDSLKSRFIISRDNAKNILYLQMSSLKSEDTATYYCARGGYWSLYFDYWGQGTTLTVSS VL: DIVMTQSPSSLTVTAGEKVTMSCKSSQSLLHSGNQKNYMTWYQQKPGQPPKLLIYWASTRESGVPDRFTGSGSGTDFTLTISSVQAEDLAVYYCQNDYSYPLTFGAGTKLELK
6.39 | 0.000349 | 54700 | Chimeric 502H1 (antibody, V domains shown, Mouse variable domains in human IgG4Pro (Ser228Pro) backbone; also called 502H1 in human IgG4Pro backbone) VH: QVTLKESGPGILQPSQTLSLTCSFSGFSLSTSGMGVTWIRKPSGQGLEWLAHIFWDGDKRYNPSLKSRLTISKDSSSNQVFLMITGVGTADAATYYCARYYYFDYGYAIDYWGQGTSVTVSS VL: DIVMTQAAFYNPVTLGTSASISCRSSKSLLHRNGITYLYWYLQKPGQSPQLLIYQMSNLASGVPDRFSSSGSGADFTLRISRVEAEDVGVYYCAQNLELPLTFGAGTKLELK
5.52 | 0.000483 | 87400 | Chimeric 709A6 (antibody, V domains shown, Mouse variable domains in human IgG4Pro (Ser228Pro) backbone; also called 709A6 in human IgG4Pro backbone) VH: QVTLKESGPGILQPSQTLSLTCSFSGFSLSTSGMGVSWIRQPSGKGLEWLTHIYWDDDKRYNPSLKSRLTISKDTSRNQVFLEITSVDTADTATYFCARSSQGLYSSYDYWGQGTTLTVSS VL: DIVLTQSPASLAVSLGQRATISCRASESVDIYGISFLHWYQQKPGQPPKHLIYRASNLDSGIPARFSGSGSRTDFTLTINPVETDDVATYYCQQSNKDPLTFGAGTKLELK
13 | 0.000305 | 23400 | Chimeric 701C1 (antibody, V domains shown, Mouse variable domains in human IgG4Pro (Ser228Pro) backbone; also called 701C1 in human IgG4Pro backbone) VH: EVQLQQSGPELVKPGASVKMSCKASGYTFTSYVIHWVKQKPGQGLEWIGYIDPSNDDTKYNEKFKGKATLTSDKSSSTAYMELSSLTSEDSAVYYCAREAYYGGLYGMDYWGQGTSVTVSS VL: not shown
1.62 | 0.000143 | 88300 | Chimeric 701E9 (antibody, V domains shown, Mouse variable domains in human IgG4Pro (Ser228Pro) backbone; also called 701E9 in human IgG4Pro backbone) VH: QVQLQQSGPELVKPGASVKLSCKASGYTFIDYTIHWVKQSPGQGLEWIGWIFPGSTNDTKYNDKFKGKATMTADKSSSTAYMQLSSLTSEDSAVYFCARYRTDFDYWGQGTTLTVSS VL: DIQMTQSPSSLSASLGERVSLTCRASQEISGYLSWLQQKPDGTIKRLIYAASTLDSGVPKRFSGSRSGSDYSLTISSLESEDFADYYCLQYASYPLTFGAGTKLELK
9.14 | 0.000801 | 87700 | Chimeric 811G3 (antibody, V domains shown, Mouse variable domains in human IgG4Pro (Ser228Pro) backbone; also called 811G3 in human IgG4Pro backbone) VH: QIQLQQSGPEVVKPGASVKISCKASGYTFTDYYINWVKQRPGQGLEWIGWIYPGGGHTKYNEKFKGEATLTVDTSSRTAYMQLSSLTSEDSAVYFCARYSNYYFDFWGHGTTLTVSS VL: DIQMTQSPSSLSASPGERVSLTCRASQEISGYLSWLQQKPDGTIKRLIYVASTLDSGVPKRFSGSRSGSDYSLTISSLESEDFADYYCLQYANYPYTFGGGTKLEIK

More lines, now with the values behind:

Binder | Kd [nM] | koff [s⁻¹] | kon [M⁻¹ s⁻¹]
Chimeric 414A12 (antibody, V domains shown, Mouse variable domains in human IgG4Pro (Ser228Pro) backbone; also called 414A12 in human IgG4Pro backbone) VH: QVQLQQPGAELVKPGASVKLSCKASGHTFTSNWIHWVKQRPGQGLEWIGEIDPSDSYTYYNQKFKGKATLTVDKSSSTAYMQLSSLTSEDSAVYSCACPGRNSNFAYWGQGTTLTVSS VL: DILMTQSPSSMSVSLGDTVSITCHASQGINNNIGWLQQKPGKSFKGLIYHKSNLEDGVPSRFSGSGSGADYSLTISSLESEDFADYYCVQYAQFPYTFGGGTKLEIK | 1.5 | 0.000269 | 180000
Chimeric 306E6 (antibody, V domains shown, Mouse variable domains in human IgG4Pro (Ser228Pro) backbone; also called 306E6 in human IgG4Pro backbone) VH: EVQLQQSGPELVKPGSSVKISCKASGYTFTDYYVNWVKQSHGKSLEWFGDIHPNSGDTTYNQKFKDKATLTVDKSSSTAYMELRSLTSEDSAVYYCARRRYDYDGFAYWGQGTLVTVSA VL: EIVMTQAAFSNPVTLGTSASISCRSSKSLLHRNGITYLYWYLQKPGQSPQLLIYEMSNLASGVPDRFSSSGSGTDFTLRISRVEAEDVGVYYCGQNLEFPLTFGAGTKLELK | 56.4 | 0.00765 | 136000
Chimeric 307A3 (antibody, V domains shown, Mouse variable domains in human IgG4Pro (Ser228Pro) backbone; also called 307A3 in human IgG4Pro backbone) VH: EVQLQQSGPELVKPGASVKISCKASGYTFTDYYVNWVKQSHGKSLEWFGDIHPNNGGITYNQKFKGKASLTVDKSSSTAYMELRSLTSEDSAVYYCARRRYDYDGFAYWGQGTLVTVSA VL: EIVMTQAAFSNPVTLGTSASISCRSSKSLLHRNGITYLYWYLQKPGQSPQLLIYEMSNLASGVPDRFSGSGSGTDFTLRISRVEAEDVGVYYCGQNLEFPLTFGAGTKLELK | 63.5 | 0.0074 | 116000
Chimeric 313C12 (antibody, V domains shown, Mouse variable domains in human IgG4Pro (Ser228Pro) backbone; also called 313C12 in human IgG4Pro backbone) VH: EVQLVESGGGLVKPGGSLKLSCAASGFTFSDYGMHWVRQTPEKGLEWIAYINSDSNTIYYADTVKGRFTISRDNARKTLYLQMTSLRSEDTAMYYCSPLVAPDYWGQGTTLTVSS VL: DIVMTQSQKFMSTTVGDRVSITCKASQNVGTAVAWYQQKPGQSPKLLIYSVSNRYTGVPDRFTGSGSGTDFTLTISNMQSEDLADYFCQQYSSYPFTFGAGTKLELK | 0.859 | 5.77e-05 | 67100

target: human PD-1 expressed on cells (human, UniProt Q15116 25-288); assay: cell-based or functional assay
Sequence (Q15116 25-288): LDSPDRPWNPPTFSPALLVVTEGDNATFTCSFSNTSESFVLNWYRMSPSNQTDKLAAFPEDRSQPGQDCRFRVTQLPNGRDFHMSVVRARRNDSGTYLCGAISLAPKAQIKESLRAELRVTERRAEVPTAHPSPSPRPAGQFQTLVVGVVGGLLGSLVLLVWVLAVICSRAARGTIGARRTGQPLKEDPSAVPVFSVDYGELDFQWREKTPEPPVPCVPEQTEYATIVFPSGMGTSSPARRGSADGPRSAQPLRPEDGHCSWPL

Binder | Emax Values (%), inhibition of NFAT activity [%] | IC50 Values (nM), inhibition of NFAT activity [nM]
803E6 (mouse IgG1 backbone) (antibody, V domains shown) VH: EVKLVESEGGLVQPGSSMKLSCTASGFTFSDYYMAWVRQVPEKGLEWVANINYDGFNTYYLDSLKSRFIISRDNAKNILYLQMSSLKSEDTATYYCARGGYWSLYFDYWGQGTTLTVSS VL: DIVMTQSPSSLTVTAGEKVTMSCKSSQSLLHSGNQKNYMTWYQQKPGQPPKLLIYWASTRESGVPDRFTGSGSGTDFTLTISSVQAEDLAVYYCQNDYSYPLTFGAGTKLELK | 48.3 | 0.38
414A12 (mouse IgG1 backbone) (antibody, V domains shown) VH: QVQLQQPGAELVKPGASVKLSCKASGHTFTSNWIHWVKQRPGQGLEWIGEIDPSDSYTYYNQKFKGKATLTVDKSSSTAYMQLSSLTSEDSAVYSCACPGRNSNFAYWGQGTTLTVSS VL: DILMTQSPSSMSVSLGDTVSITCHASQGINNNIGWLQQKPGKSFKGLIYHKSNLEDGVPSRFSGSGSGADYSLTISSLESEDFADYYCVQYAQFPYTFGGGTKLEIK | 45 | 0.39
502H1 (mouse IgG1 backbone) (antibody, V domains shown) VH: QVTLKESGPGILQPSQTLSLTCSFSGFSLSTSGMGVTWIRKPSGQGLEWLAHIFWDGDKRYNPSLKSRLTISKDSSSNQVFLMITGVGTADAATYYCARYYYFDYGYAIDYWGQGTSVTVSS VL: DIVMTQAAFYNPVTLGTSASISCRSSKSLLHRNGITYLYWYLQKPGQSPQLLIYQMSNLASGVPDRFSSSGSGADFTLRISRVEAEDVGVYYCAQNLELPLTFGAGTKLELK | 48.9 | 0.34
307A3 (mouse IgG1 backbone) (antibody, V domains shown) VH: EVQLQQSGPELVKPGASVKISCKASGYTFTDYYVNWVKQSHGKSLEWFGDIHPNNGGITYNQKFKGKASLTVDKSSSTAYMELRSLTSEDSAVYYCARRRYDYDGFAYWGQGTLVTVSA VL: EIVMTQAAFSNPVTLGTSASISCRSSKSLLHRNGITYLYWYLQKPGQSPQLLIYEMSNLASGVPDRFSGSGSGTDFTLRISRVEAEDVGVYYCGQNLEFPLTFGAGTKLELK | 42.6 | 1.03
709A6 (mouse IgG1 backbone) (antibody, V domains shown) VH: QVTLKESGPGILQPSQTLSLTCSFSGFSLSTSGMGVSWIRQPSGKGLEWLTHIYWDDDKRYNPSLKSRLTISKDTSRNQVFLEITSVDTADTATYFCARSSQGLYSSYDYWGQGTTLTVSS VL: DIVLTQSPASLAVSLGQRATISCRASESVDIYGISFLHWYQQKPGQPPKHLIYRASNLDSGIPARFSGSGSRTDFTLTINPVETDDVATYYCQQSNKDPLTFGAGTKLELK | 29.8 | 0.04
701C1 (mouse IgG1 backbone) (antibody, V domains shown) VH: EVQLQQSGPELVKPGASVKMSCKASGYTFTSYVIHWVKQKPGQGLEWIGYIDPSNDDTKYNEKFKGKATLTSDKSSSTAYMELSSLTSEDSAVYYCAREAYYGGLYGMDYWGQGTSVTVSS VL: not shown | 53.2 | 1.69
701E9 (mouse IgG1 backbone) (antibody, V domains shown) VH: QVQLQQSGPELVKPGASVKLSCKASGYTFIDYTIHWVKQSPGQGLEWIGWIFPGSTNDTKYNDKFKGKATMTADKSSSTAYMQLSSLTSEDSAVYFCARYRTDFDYWGQGTTLTVSS VL: DIQMTQSPSSLSASLGERVSLTCRASQEISGYLSWLQQKPDGTIKRLIYAASTLDSGVPKRFSGSRSGSDYSLTISSLESEDFADYYCLQYASYPLTFGAGTKLELK | 46 | 0.22
811G3 (mouse IgG1 backbone) (antibody, V domains shown) VH: QIQLQQSGPEVVKPGASVKISCKASGYTFTDYYINWVKQRPGQGLEWIGWIYPGGGHTKYNEKFKGEATLTVDTSSRTAYMQLSSLTSEDSAVYFCARYSNYYFDFWGHGTTLTVSS VL: DIQMTQSPSSLSASPGERVSLTCRASQEISGYLSWLQQKPDGTIKRLIYVASTLDSGVPKRFSGSRSGSDYSLTISSLESEDFADYYCLQYANYPYTFGGGTKLEIK | 44.5 | 0.14
